Test results published in patent US20110145940, “TAL EFFECTOR-MEDIATED DNA MODIFICATION” (published 2011).

Target: AvrBs3 TALEN (BamHI fragment-FokI) (Xanthomonas campestris pv. vesicatoria, UniProt P14727 SEQ:26-1141)
Experiment: cell_activity; yeast lacZ SSA assay, 18 bp spacer; optima 15 and 21 bp
Details: tags: FokI catalytic domain fusion, N-terminal NLS; chain copies: 2 (inferred); two sites in inverted orientation around spacer

B1: AvrBs3 site (dsDNA)
DNA 1: ATATAAACCTAACCATCC
DNA 2: GGATGGTTAGGTTTATAT
B1 was tested, and the activity was 15.8 fold over target-only control.
